Here are results for 2 molecules from patent publication EP4660205A1 (Beijing Wisdomab Biotechnology Co., Ltd, dated 2025).

What is called Kd is the equilibrium constant for the complex coming apart. A high value points to a looser complex. As a reminder, the koff is a measure of how fast the partners let go of each other. A lower koff goes with slow dissociation. A word on the kon: it is the second-order rate constant of association.

Like-named read-outs stand apart in the source and are kept apart here.

Test [1] concerns the target T1, hIL-1R3-His (extracellular domain of human IL-1R3 with C-terminal His tag) (human (homo sapiens), UniProt Q9NPH3 21-359).
T1 sequence: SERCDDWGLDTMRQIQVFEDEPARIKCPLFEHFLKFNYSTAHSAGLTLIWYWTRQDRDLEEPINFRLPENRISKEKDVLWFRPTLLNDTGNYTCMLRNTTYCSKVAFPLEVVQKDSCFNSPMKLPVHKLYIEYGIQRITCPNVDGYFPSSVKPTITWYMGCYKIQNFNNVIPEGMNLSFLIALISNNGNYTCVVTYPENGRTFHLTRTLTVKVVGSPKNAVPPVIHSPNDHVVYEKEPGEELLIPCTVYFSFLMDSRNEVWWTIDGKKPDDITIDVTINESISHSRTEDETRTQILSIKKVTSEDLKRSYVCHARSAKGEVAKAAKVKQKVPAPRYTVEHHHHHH
The experiment in a line: SPR (Biacore T200), antibody captured by anti-human Fc, hIL-1R3-His as analyte, 1:1 model. In general terms: SPR reads the build-up and loss of mass on a sensor chip optically.

Test [2] has as its target T1, hIL-1R3-His (extracellular domain of …). Described as above. This is another data set of the same source.
Test [3] addresses T2, human IL-36R on the cell surface (HEK-Blue IL-36 cells, HaCAT cells, human CD14+ monocytes) (human, UniProt Q9HB29 20-575).
T2 sequence (looked up): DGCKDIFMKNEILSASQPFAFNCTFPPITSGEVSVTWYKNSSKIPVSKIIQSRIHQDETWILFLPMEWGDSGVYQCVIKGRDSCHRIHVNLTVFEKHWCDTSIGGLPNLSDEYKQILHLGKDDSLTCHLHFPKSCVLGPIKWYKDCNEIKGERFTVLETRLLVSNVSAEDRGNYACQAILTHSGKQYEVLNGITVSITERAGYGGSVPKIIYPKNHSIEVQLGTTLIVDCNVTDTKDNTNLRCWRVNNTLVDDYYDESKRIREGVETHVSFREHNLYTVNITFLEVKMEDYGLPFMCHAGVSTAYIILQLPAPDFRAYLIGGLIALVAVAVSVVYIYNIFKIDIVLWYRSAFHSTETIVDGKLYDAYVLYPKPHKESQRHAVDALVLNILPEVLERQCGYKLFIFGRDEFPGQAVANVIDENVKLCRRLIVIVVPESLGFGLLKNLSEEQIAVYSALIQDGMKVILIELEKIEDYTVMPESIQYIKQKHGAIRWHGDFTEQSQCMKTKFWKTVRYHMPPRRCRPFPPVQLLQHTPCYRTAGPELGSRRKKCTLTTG
Description: cell-based or functional assay.

The target in test [4] is T2, human IL-36R on the cell surface …. Description: cell-based or functional assay. This is another data set of the same source.
Test [5] shares this target. Description: cell-based or functional assay. The source holds these as a separate data set.
Test [6] concerns the target T3, hIL-36R-His (extracellular domain of human IL-36R with C-terminal His tag) (human (homo sapiens), UniProt Q9HB29 20-335).
T3 construct: also called human hIL-36R-His
T3 sequence: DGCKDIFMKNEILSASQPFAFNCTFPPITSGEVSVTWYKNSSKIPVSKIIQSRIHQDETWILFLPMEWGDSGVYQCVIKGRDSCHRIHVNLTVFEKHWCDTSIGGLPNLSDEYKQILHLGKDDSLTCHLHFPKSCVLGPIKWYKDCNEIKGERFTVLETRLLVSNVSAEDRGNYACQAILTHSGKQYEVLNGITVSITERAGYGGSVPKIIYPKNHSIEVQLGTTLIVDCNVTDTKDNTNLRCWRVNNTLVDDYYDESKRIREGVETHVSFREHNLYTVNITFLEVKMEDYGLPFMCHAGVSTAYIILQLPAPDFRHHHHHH
The experiment in a line: SPR (Biacore T200), antibody captured by anti-human Fc, hIL-36R-His as analyte, 1:1 model.

Test [7] addresses T1, hIL-1R3-His (extracellular domain of …). The experiment in a line: SPR (Biacore T200), antibody captured by anti-human Fc, hIL-1R3-His as analyte, 1:1 model. This is another data set of the same source.

B1: R1B9 (mouse anti-human IL-1R3 monoclonal antibody) (antibody, V domains shown)
VH: EVKLVESGGGLVKPGGSLKLSCAASGFTFSSYAMSWVRQSPEKRLEWVAEISRGGSHTYYPDTVTGRFTISRDNAKNTLYLEMTSLRSEDTALYYCARSYGNYPFDYWGQGTTLTVSS
VL: DIVMTQSPAIMSASPGEKVTMTCSASSSVSYMYWYQQKPGSSPRLLIYDTSNLASGVPVRFSGSGSGTSYSLTISRMEAEDAATYYCQQWSSYPLTFGAGTKLEIK
notes: Found as a mouse scFv on phage; it was captured by anti-human IgG (Fc) in SPR and detected with anti-human IgG-FITC, which points to a human Fc; also called mouse IL-1R3 monoclonal antibody R1B9; parent R1B9
As to B1, in test [1], binding was characterised by a dissociation constant (Kd) of 1.07 nM, the koff is 0.00011 s⁻¹ and the kon was determined as 103000 M⁻¹ s⁻¹. For the same molecule, in test [2], binding was characterised by a dissociation constant (Kd) of 1.24 nM, the koff stood at 9.32e-05 s⁻¹ and the kon amounted to 75000 M⁻¹ s⁻¹.

B2: Common light chain bispecific antibody (R72B7VH/R1B9VH-h1+L36E9VK) (bispecific antibody, human IgG1, kappa)
heavy 1: QVQLVQSGAEVKKPGASVKVSCKASGYSFTSSWIHWVKQAPGQGLEWMGEINPGNVRSNYNENFRNKVTMTVDTSISTAYMELSRLRSDDTAVYYCTVINYGEPYFASWGQGTLVTVSSASTKGPSVFPLAPSSKSTSEGTAALGCLVKDYFPEPVTVSWNSGALTSGVHTFPAVLQSSGLYSLSSVVTVPSSSLGTQTYICNVDHKPSNTKVDKTVEPKSCDKTHTCPPCPAPEFEGGPSVFLFPPKPKDTLMISRTPEVTCVVVDVSQEDPEVQFNWYVDGVEVHNAKTKPREEQYNSTYRVVSVLTVLHQDWLNGKEYKCKVSNKALPASIEKTISKAKGQPREPQVCTLPPSQEEMTKNQVSLSCAVKGFYPSDIAVEWESNGQPENNYKTTPPVLDSDGSFFLVSKLTVDKSRWQEGNVFSCSVMHEALHNHYTQKSLSLSPGK
heavy 2: EVQLVESGGGLVQPGGSLRLSCAASGFTFSSYAMSWVRQAPGKGLVWVAEISRGGSHTYYPDTVTGRFTISRDNAKNTLYLQMNSLRAEDTAVYYCARSYGNYPFDYWGQGTTVTVSSASTKGPSVFPLAPSSKSTSGGTAALGCLVKDYFPEPVTVSWNSGALTSGVHTFPAVLQSSGLYSLSSVVTVPSSSLGTQTYICNVNHKPSNTKVDKRVEPKSCDKTHTCPPCPAPEFEGGPSVFLFPPKPKDTLMISRTPEVTCVVVDVSHEDPEVKFNWYVDGVEVHNAKTKPREEQYNSTYRVVSVLTVLHQDWLNGKEYKCKVSNKALPASIEKTISKAKGQPREPQVYTLPPCREEMTKNQVSLWCLVKGFYPSDIAVEWESNGQPENNYKTTPPVLDSDGSFFLYSKLTVDKSRWQQGNVFSCSVMHEALHNHYTQKSLSLSPGK
light: EIVLTQSPGTLSLSPGERATLSCRASQSVIGSYLAWYQQKPGQAPRLLIYSASKLASGIPDRFSGSGSGTDFTLTISRLEPEDFAVYYCQQDTRYPITFGQGTKVEIKRTVAAPSVFIFPPSDEQLKSGTASVVCLLNNFYPREAKVQWKVDNALQSGNSQESVTEQDSKDSTYSLSSTLTLSKADYEKHKVYACEVTHQGLSSPVTKSFNRGEC
notes: also called IL-36R×IL-1R3 common light chain bispecific antibody; R72B7/R1B9VH-h1+L36E9VK
Take B2: in test [3], the “fold increase of activity by IC50 against Spesolimab, IL-36α, HaCAT hIL-8 secretion” value was ~12 fold; the “fold increase of activity by IC50 against Spesolimab, IL-36β, HaCAT hIL-8 secretion” value was ~4 fold; the “fold increase of activity by IC50 against Spesolimab, IL-36γ, HaCAT hIL-8 secretion” value is ~15 fold; the “fold increase of activity by IC50 against Spesolimab, IL-36γ, hIL-8 secretion by human monocytes” value is ~17 fold. In test [4], the “IC50 for inhibiting IL-36α from inducing hIL-8 secretion by HaCAT cells” value was determined as 0.00797 nM, the “IC50 for inhibiting IL-36β from inducing hIL-8 secretion by HaCAT cells” value is 0.027 nM and the “IC50 for inhibiting IL-36γ from inducing hIL-8 secretion by HaCAT cells” value stood at 0.0453 nM. Besides, the “IC50 for inhibiting IL-36γ-induced hIL-8 secretion by human monocytes” value in test [5] was 0.00171 nM. Moreover, in test [6], binding was put at a Kd of 1.29 nM, the koff is 3.98e-05 s⁻¹ and the kon came to 30700 M⁻¹ s⁻¹. For the same molecule, in test [7], the Kd worked out at 1.44 nM, the koff was 5.53e-05 s⁻¹ and the kon was 38400 M⁻¹ s⁻¹.
